Source: PMC10682464, “The structural basis for light acclimation in phycobilisome light harvesting systems systems in Porphyridium purpureum” (Communications Biology, 2023)

B1: phycoerythrin (PE) α subunit of the Porphyridium purpureum phycobilisome (natural protein, UniProt P11392 1-164, looked up)
chain: MKSVITTVVSAADAAGRFPSNSDLESIQGNIQRSAARLEAAEKLAGNHEAVVKEAGDACFAKYAYLKNPGEAGENQEKINKCYRDVDHYMRLVNYDLVVGGTGPLDEWGIAGAREVYRTLNLPTSAYVASIAYTRDRLCVPRDMSAQAGVEFSAYLDYLINALS
modifications: covalently attached open tetrapyrrole chromophores (sites not given)
notes: phycoerythrin alpha subunit, Porphyridium purpureum (UTEX 2757); chain of the ML-PBS model PDB 7EZX, which was built from LL-PBS PDB 6KGX; also called α^PE; PE subunit
B2: αβ^PE monomer (phycoerythrin α and β subunits) of the Porphyridium purpureum phycobilisome (complex)
chain 1: B1 chain
chain 2: MLDAFSRVVVNSDAKAAYVGGSDLQALKSFIADGNKRLDAVNSIVSNASCMVSDAVSGMICENPGLISPGGNCYTNRRMAACLRDGEIILRYVSYALLAGDASVLEDRCLNGLKETYIALGVPTNSSIRAVSIMKAQAVAFITNTATERKMSFAAGDCTSLASEVASYFDRVGAAIS
modifications: covalently attached open tetrapyrrole chromophores (sites not given) | covalently attached open tetrapyrrole chromophores (sites not given)
notes: phycoerythrin alpha subunit, Porphyridium purpureum; as the chain of m1; phycoerythrin beta subunit, Porphyridium purpureum; as the chain of m2; The introduction says that (αβ) monomers assemble into trimers and hexamers; also called (αβ) monomer

Tests used:
[1] = molecular target: T1, phycoerythrin (PE) β subunit of the Porphyridium purpureum phycobilisome (Porphyridium purpureum (endogenous in …, UniProt P11393 1-177, covalently attached open tetrapyrrole chromophores (sites not given))); test: cryo-EM structure; intact ML-PBS isolated from P. purpureum on a sucrose gradient; 1.5 mg/mL, diluted on the grid with 50 mM Tris pH 8.0, 16 °C; overall resolution 3.04 Å, C2 symmetry; settings: both partners purified
T1 construct: phycoerythrin beta subunit, Porphyridium purpureum (UTEX 2757); chain of the ML-PBS model PDB 7EZX, which was built from LL-PBS PDB 6KGX; also called β^PE; PE subunit

[2] = molecular target: the molecule itself; test: as above

Row | Binder | binding result [1] | stoichiometry N [2]
1 | B1 | binds | 
2 | B2 |  | 6
